Laboratory results reported in publication doi:10.1101/2022.06.09.495453.

Target: SHLD2^1-95 (human)
Assay: SEC-MALS

Chain of REV7 of the SHLD3-SHLD2^1-95-REV7 ternary complex (Shieldin) (Q9UI95 whole entry, one chain of several): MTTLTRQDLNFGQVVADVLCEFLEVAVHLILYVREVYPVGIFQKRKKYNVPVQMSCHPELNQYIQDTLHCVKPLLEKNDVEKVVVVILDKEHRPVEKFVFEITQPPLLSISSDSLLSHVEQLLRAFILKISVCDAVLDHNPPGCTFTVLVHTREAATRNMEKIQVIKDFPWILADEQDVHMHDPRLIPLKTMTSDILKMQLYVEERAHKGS

REV7 of the SHLD3-SHLD2^1-95-REV7 ternary complex (Shieldin) (from UniProt Q9UI95 1-211) (natural protein)
stoichiometry N (REV7 per SHLD2^1-95): 2
